Measurements as given in publication PMC10628450.

Columns and labels:
FcRn-His6 [1] = molecular target: FcRn-His6 (UniProt P55899); experiment: BLI; pH 6; conditions: bispecific antibody
FcRn-His6 [2] = molecular target: FcRn-His6 (UniProt P55899); experiment: BLI; conditions: bispecific antibody
[3] = molecular target: Anti-NKp46_AB_F06 (human); experiment: BLI; antibodies loaded at 5 µg/ml on anti-human-Fc (AHC) or anti-human-CH1 (FAB2G) biosensors; antigen in solution (EGFR 3.125-200 nM; NKp46 and NKp30 1.6-100 nM) in kinetics buffer (PBS, 0.1% Tween-20, 1% BSA); 25°C; 1:1 binding model
[4] = molecular target: Anti-NKp46_AB_H05 (human); experiment: as above
Anti-NKp46_AB_H05 (human), sequence (heavy, as listed by the source, chain 1 of 2): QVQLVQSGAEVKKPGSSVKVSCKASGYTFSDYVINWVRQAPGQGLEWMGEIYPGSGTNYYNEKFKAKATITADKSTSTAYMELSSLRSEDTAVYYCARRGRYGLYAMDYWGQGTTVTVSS
Anti-NKp46_AB_H05 (human), sequence (light, as listed by the source, chain 2 of 2): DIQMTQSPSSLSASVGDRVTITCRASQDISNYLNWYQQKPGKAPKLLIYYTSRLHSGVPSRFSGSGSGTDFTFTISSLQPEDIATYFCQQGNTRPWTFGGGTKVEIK

FcRn-His6, sequence (P55899 24-297, chain 1 of 2): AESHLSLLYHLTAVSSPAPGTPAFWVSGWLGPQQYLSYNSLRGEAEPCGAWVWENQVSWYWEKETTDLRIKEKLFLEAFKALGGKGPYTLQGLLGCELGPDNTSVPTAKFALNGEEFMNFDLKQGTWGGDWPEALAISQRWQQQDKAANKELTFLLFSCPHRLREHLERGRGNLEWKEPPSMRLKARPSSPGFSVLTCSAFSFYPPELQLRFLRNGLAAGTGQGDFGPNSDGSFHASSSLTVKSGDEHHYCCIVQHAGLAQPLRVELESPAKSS
FcRn-His6, sequence (partner, as listed by the source, chain 2 of 2): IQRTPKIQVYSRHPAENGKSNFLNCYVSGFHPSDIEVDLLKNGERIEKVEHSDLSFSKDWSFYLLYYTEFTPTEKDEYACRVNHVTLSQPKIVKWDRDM
Anti-NKp46_AB_F06 (human), sequence (heavy, as listed by the source, chain 1 of 2): as the sequence (heavy, as listed by the source, chain 1 of 2) above
Anti-NKp46_AB_F06 (human), sequence (light, as listed by the source, chain 2 of 2): as the sequence (light, as listed by the source, chain 2 of 2) above

| Substance | Kd (FcRn-His6 [1]) | koff (FcRn-His6 [1]) | Kd (FcRn-His6 [2]) | Kd [3] | Kd [4] |
| --- | --- | --- | --- | --- | --- |
| Anti-NKp46_AB_F06 (from UniProt P01857) | 407 nM | 0.0576 s⁻¹ | – | – | – |
| Anti-NKp46_AB_H05 (from UniProt P01857) | 399 nM | 0.076 s⁻¹ | – | – | – |
| Anti-NKp46_EF_F06 (from UniProt P01857) | – | 0.0736 s⁻¹ | 477 nM | – | – |
| Anti-NKp46_EF_H05 (from UniProt P01857) | 392 nM | 0.0852 s⁻¹ | – | – | – |
| human EGFR ECD-His6 (from UniProt P00533 25-645) (receptor) | – | – | – | 29.4 nM | 37.7 nM |
